Source: patent US20150023979A1 (VALDOSPAN, published 2015)

What was measured:
[1] = molecular target: T1, HPV51 E7 protein, recombinant (His-TEV-E7 fusion from E. coli) (Human Papilloma Virus type 51 (HPV51), UniProt P26558 1-101, CKII phosphorylation of the consensus site serines in the antigen preparation of Example 2); experiment: ELISA and dot-blot, semiquantitative crossreactivity
T1 construct: mature; also called VE7_HPV51; not shown: N-terminal 6x Histidine tag and TEV cleavage site of the vector
T1 sequence: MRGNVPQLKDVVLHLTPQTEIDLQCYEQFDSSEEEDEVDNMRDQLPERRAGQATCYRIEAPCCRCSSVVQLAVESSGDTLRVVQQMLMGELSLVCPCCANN

[2] = molecular target: T2, HPV56 E7 protein, recombinant (His-TEV-E7 fusion from E. coli) (Human Papilloma Virus type 56 (HPV56), UniProt P36833 1-105, CKII phosphorylation of the consensus site serines in the antigen preparation of Example 2); experiment: as above
T2 construct: mature; also called VE7_HPV56; not shown: N-terminal 6x Histidine tag and TEV cleavage site of the vector
T2 sequence: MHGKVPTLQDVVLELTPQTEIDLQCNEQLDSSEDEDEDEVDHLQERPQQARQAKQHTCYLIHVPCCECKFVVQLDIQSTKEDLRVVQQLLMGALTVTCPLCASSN

[3] = molecular target: T3, HPV18 E7 protein, recombinant (His-TEV-E7 fusion from E. coli) (Human Papilloma Virus type 18 (HPV18), UniProt P06788 1-105, CKII phosphorylation of the consensus site serines in the antigen preparation of Example 2; biotin on primary amines in the SPR assay); experiment: ELISA and dot-blot, semiquantitative crossreactivity (+ weak interaction)
T3 construct: mature; also called VE7_HPV18; not shown: N-terminal 6x Histidine tag and TEV cleavage site of the vector
T3 sequence: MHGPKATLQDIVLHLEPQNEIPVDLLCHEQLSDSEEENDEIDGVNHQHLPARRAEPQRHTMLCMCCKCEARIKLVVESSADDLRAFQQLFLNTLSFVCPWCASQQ

[4] = molecular target: T4, HPV16 E7 protein, recombinant (His-TEV-E7 fusion from E. coli) (Human Papilloma Virus type 16 (HPV16), UniProt P03129 1-98, CKII phosphoserines at E7 S31 and S32 (chain 1 pos 49 and 50) in the antigen preparation of Example 2, written S; biotin on primary amines (Sulfo-NHS-LC Biotin) in the SPR assay.); experiment: SPR (BIAcore X100), biotin-E7 on streptavidin SA chip, antibody as analyte, bivalent analyte fit, 25 C
T4 construct: also called VE7_HPV16
T4 sequence: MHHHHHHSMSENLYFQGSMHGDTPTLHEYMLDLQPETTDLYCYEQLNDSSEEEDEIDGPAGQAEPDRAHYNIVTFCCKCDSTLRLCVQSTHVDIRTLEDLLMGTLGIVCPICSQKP

[5] = molecular target: T5, HPV35 E7 protein, recombinant (His-TEV-E7 fusion from E. coli) (Human Papilloma Virus type 35 (HPV35), UniProt P27230 1-99, CKII phosphorylation of the consensus site serines in the antigen preparation of Example 2); experiment: ELISA and dot-blot, semiquantitative crossreactivity (++ strong positive)
T5 construct: mature; also called VE7_HPV35; not shown: N-terminal 6x Histidine tag and TEV cleavage site of the vector
T5 sequence: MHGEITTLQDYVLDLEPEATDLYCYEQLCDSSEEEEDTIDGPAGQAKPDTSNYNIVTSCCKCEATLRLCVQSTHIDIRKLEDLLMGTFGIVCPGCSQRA

[6] = molecular target: T6, HPV58 E7 protein, recombinant (His-TEV-E7 fusion from E. coli) (Human Papilloma Virus type 58 (HPV58), UniProt P26557 1-98, CKII phosphorylation of the consensus site serines in the antigen preparation of Example 2); experiment: as above
T6 construct: mature; also called VE7_HPV58; not shown: N-terminal 6x Histidine tag and TEV cleavage site of the vector
T6 sequence: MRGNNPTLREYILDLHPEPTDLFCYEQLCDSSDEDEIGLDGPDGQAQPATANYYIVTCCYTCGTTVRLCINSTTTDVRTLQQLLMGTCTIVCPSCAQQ

[7] = molecular target: T7, HPV33 E7 protein, recombinant (His-TEV-E7 fusion from E. coli) (Human Papilloma Virus type 33 (HPV33), UniProt P06429 1-97, CKII phosphorylation of the consensus site serines in the antigen preparation of Example 2; biotin on primary amines in the SPR assay); experiment: ELISA and dot-blot, semiquantitative crossreactivity (+ weak interaction)
T7 construct: mature; also called VE7_HPV33; not shown: N-terminal 6x Histidine tag and TEV cleavage site of the vector
T7 sequence: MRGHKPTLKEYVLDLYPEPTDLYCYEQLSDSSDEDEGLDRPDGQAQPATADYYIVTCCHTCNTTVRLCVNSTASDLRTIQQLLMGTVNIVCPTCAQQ

[8] = molecular target: T8, HPV39 E7 protein, recombinant (His-TEV-E7 fusion from E. coli) (Human Papilloma Virus type 39 (HPV39), UniProt P24837 1-109, CKII phosphorylation of the consensus site serine in the antigen preparation of Example 2); experiment: ELISA and dot-blot, semiquantitative crossreactivity (++ strong positive)
T8 construct: mature; also called VE7_HPV39; not shown: N-terminal 6x Histidine tag and TEV cleavage site of the vector
T8 sequence: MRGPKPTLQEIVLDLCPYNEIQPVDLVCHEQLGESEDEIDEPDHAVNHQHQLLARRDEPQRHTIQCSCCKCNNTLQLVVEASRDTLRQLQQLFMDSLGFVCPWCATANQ

[9] = molecular target: T1, HPV51 E7 protein, recombinant …; experiment: as above
Method: (§1) Using ELISA and dot-blot techniques semiquantitative crossreactivities of the isolated mAbs was analysed. For this various mAbs were tested against the accepted high risk species.

[10] = molecular target: T2, HPV56 E7 protein, recombinant …; experiment: as above
Method: as §1

B1: ACAB161 (antibody, IgG2a, V domains shown)
VH: EVMLVESGGGLVKPGGSLKLSCAASGFTFSRYTMSWVRQTPEKRLEWVATISSGGTNTNYTDSVKGRFTISRDNAKNNLYLQMSSLRSEDTALYYCTRGVRRGDGYAMDYWGQGTSVTVSS
VL: DIVLTQAAPSVPVTPGESVSISCRSTKSLLHSNGNTYLYWFLQRPGQSPQALIYRTSNLASGVPDRFSGSGSGTAFTLRISRVEAEDVGVYYCMQHLEYPLTFGAGTKLELKR
notes: the printed entries run on into the first residues of the constant domains; also called HPV16E7 IgG2a antibody ACAB161
[1]
  binding result: no binding
[2]
  binding result: no binding
[3]
  binding result: binds
[4]
  Kd: 3.38 nM
  kon: 58400 M⁻¹ s⁻¹

B2: ACAB164 (antibody, V domains shown)
VH: EVQLQQSGLALVQPGASVKISCRTSGYTFTEYTLHWVKQSHGKSLEWIGGINPNNGSPKYNQKFKGKATLTVDKSSSTAYMELRSLTSEDSAVYYCARLDINSFFDYWGQGTTLTVSS
VL: DVVMTQSPLSLPVSLGDQASISCRSSQSLVHSNGNTYLQWYLQKPGQSPKLLIYKLSNRFSGVPDRFSGSGSGTDFTLKISRVEAEDLGVYSCSQTTHVPPTFGGGTKLEIKR
notes: the printed entries run on into the first residues of the constant domains; also called HPV16E7 IgG2a antibody ACAB164
[1]
  binding result: no binding
[2]
  binding result: no binding
[5]
  binding result: binds
[6]
  binding result: binds
[4]
  Kd: 0.052 nM
  kon: 261000 M⁻¹ s⁻¹

B3: ACAB452 (antibody, IgG1, V domains shown)
VH: DVQLQESGPGLVKPSQSLSLTCTVTGYSITSDYAWNWIRQFPGNKLEWVGYITYSGSTNYNPSLKSRISITRDTSKNQFFLQFNSVTSEDTATYFCARSWFAYWGQGTLVTVSS
VL: DIVMTQTPLSLPVSLGDQASISCRSSQSLVHSNGNTYLHWFLQKPGQSPKLLIYKVSNRFSGVPDRFSGSGSGTDFTLKISRVEAEDLGVYFCLQSAHVPLTFGAGTKLELTR
notes: also called HPV45E7 IgG1 antibody ACAB452
[7]
  binding result: binds
[8]
  binding result: binds
[9]
  binding result: binds
[10]
  binding result: binds
